The source of these data is patent publication US20250368745A1 (published 2025).

T1: human IL-18BP (human, UniProt O95998 31-194)
T1 construct: UniProt printed as 095998; also called hIL-18BP
T1 sequence: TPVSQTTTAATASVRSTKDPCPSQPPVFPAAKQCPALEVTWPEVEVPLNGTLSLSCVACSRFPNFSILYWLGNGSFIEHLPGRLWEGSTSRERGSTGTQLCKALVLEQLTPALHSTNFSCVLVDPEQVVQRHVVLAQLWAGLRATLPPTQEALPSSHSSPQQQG

B1: SA302a HC-S31E (antibody, V domains shown)
VH: QVQLQESGPGLVKPSQTLSLTCTVSGYSITEDYNAHWIRQPPGKGLEWIGYIHYSGSTNYNPSLKSRVTISRDTSKNQFSLKLSSVTAADTAVYYCARNYGSIYVNYFDYWGQGTLVTVSS
VL: EIVLTQSPATLSLSPGERATLSCSASSSVSYMYWYQQKPGQAPRPLIYRTSNLASGIPARFSGSGSGTDFTLTISSLEPEDFAVYYCQQYHSYPTFGGGTKVEIK
B2: SA302a HC-D33H (antibody, V domains shown)
VH: QVQLQESGPGLVKPSQTLSLTCTVSGYSITSHYNAHWIRQPPGKGLEWIGYIHYSGSTNYNPSLKSRVTISRDTSKNQFSLKLSSVTAADTAVYYCARNYGSIYVNYFDYWGQGTLVTVSS
VL: EIVLTQSPATLSLSPGERATLSCSASSSVSYMYWYQQKPGQAPRPLIYRTSNLASGIPARFSGSGSGTDFTLTISSLEPEDFAVYYCQQYHSYPTFGGGTKVEIK
B3: SA302a HC-D33I (antibody, V domains shown)
VH: QVQLQESGPGLVKPSQTLSLTCTVSGYSITSIYNAHWIRQPPGKGLEWIGYIHYSGSTNYNPSLKSRVTISRDTSKNQFSLKLSSVTAADTAVYYCARNYGSIYVNYFDYWGQGTLVTVSS
VL: EIVLTQSPATLSLSPGERATLSCSASSSVSYMYWYQQKPGQAPRPLIYRTSNLASGIPARFSGSGSGTDFTLTISSLEPEDFAVYYCQQYHSYPTFGGGTKVEIK
B4: SA302a HC-D33R (antibody, V domains shown)
VH: QVQLQESGPGLVKPSQTLSLTCTVSGYSITSRYNAHWIRQPPGKGLEWIGYIHYSGSTNYNPSLKSRVTISRDTSKNQFSLKLSSVTAADTAVYYCARNYGSIYVNYFDYWGQGTLVTVSS
VL: EIVLTQSPATLSLSPGERATLSCSASSSVSYMYWYQQKPGQAPRPLIYRTSNLASGIPARFSGSGSGTDFTLTISSLEPEDFAVYYCQQYHSYPTFGGGTKVEIK
B5: SA302a HC-Y33aE (antibody, V domains shown)
VH: QVQLQESGPGLVKPSQTLSLTCTVSGYSITSDENAHWIRQPPGKGLEWIGYIHYSGSTNYNPSLKSRVTISRDTSKNQFSLKLSSVTAADTAVYYCARNYGSIYVNYFDYWGQGTLVTVSS
VL: EIVLTQSPATLSLSPGERATLSCSASSSVSYMYWYQQKPGQAPRPLIYRTSNLASGIPARFSGSGSGTDFTLTISSLEPEDFAVYYCQQYHSYPTFGGGTKVEIK
B6: SA302a HC-S31M (antibody, V domains shown)
VH: QVQLQESGPGLVKPSQTLSLTCTVSGYSITMDYNAHWIRQPPGKGLEWIGYIHYSGSTNYNPSLKSRVTISRDTSKNQFSLKLSSVTAADTAVYYCARNYGSIYVNYFDYWGQGTLVTVSS
VL: EIVLTQSPATLSLSPGERATLSCSASSSVSYMYWYQQKPGQAPRPLIYRTSNLASGIPARFSGSGSGTDFTLTISSLEPEDFAVYYCQQYHSYPTFGGGTKVEIK
B7: SA302a HC-Y33aR (antibody, V domains shown)
VH: QVQLQESGPGLVKPSQTLSLTCTVSGYSITSDRNAHWIRQPPGKGLEWIGYIHYSGSTNYNPSLKSRVTISRDTSKNQFSLKLSSVTAADTAVYYCARNYGSIYVNYFDYWGQGTLVTVSS
VL: EIVLTQSPATLSLSPGERATLSCSASSSVSYMYWYQQKPGQAPRPLIYRTSNLASGIPARFSGSGSGTDFTLTISSLEPEDFAVYYCQQYHSYPTFGGGTKVEIK
B8: SA302a HC-Y33aD (antibody, V domains shown)
VH: QVQLQESGPGLVKPSQTLSLTCTVSGYSITSDDNAHWIRQPPGKGLEWIGYIHYSGSTNYNPSLKSRVTISRDTSKNQFSLKLSSVTAADTAVYYCARNYGSIYVNYFDYWGQGTLVTVSS
VL: EIVLTQSPATLSLSPGERATLSCSASSSVSYMYWYQQKPGQAPRPLIYRTSNLASGIPARFSGSGSGTDFTLTISSLEPEDFAVYYCQQYHSYPTFGGGTKVEIK
B9: SA302a HC-S31A (antibody, V domains shown)
VH: QVQLQESGPGLVKPSQTLSLTCTVSGYSITADYNAHWIRQPPGKGLEWIGYIHYSGSTNYNPSLKSRVTISRDTSKNQFSLKLSSVTAADTAVYYCARNYGSIYVNYFDYWGQGTLVTVSS
VL: EIVLTQSPATLSLSPGERATLSCSASSSVSYMYWYQQKPGQAPRPLIYRTSNLASGIPARFSGSGSGTDFTLTISSLEPEDFAVYYCQQYHSYPTFGGGTKVEIK
B10: SA302a HC-Y33aS (antibody, V domains shown)
VH: QVQLQESGPGLVKPSQTLSLTCTVSGYSITSDSNAHWIRQPPGKGLEWIGYIHYSGSTNYNPSLKSRVTISRDTSKNQFSLKLSSVTAADTAVYYCARNYGSIYVNYFDYWGQGTLVTVSS
VL: EIVLTQSPATLSLSPGERATLSCSASSSVSYMYWYQQKPGQAPRPLIYRTSNLASGIPARFSGSGSGTDFTLTISSLEPEDFAVYYCQQYHSYPTFGGGTKVEIK
B11: SA302a HC-Y33aL (antibody, V domains shown)
VH: QVQLQESGPGLVKPSQTLSLTCTVSGYSITSDLNAHWIRQPPGKGLEWIGYIHYSGSTNYNPSLKSRVTISRDTSKNQFSLKLSSVTAADTAVYYCARNYGSIYVNYFDYWGQGTLVTVSS
VL: EIVLTQSPATLSLSPGERATLSCSASSSVSYMYWYQQKPGQAPRPLIYRTSNLASGIPARFSGSGSGTDFTLTISSLEPEDFAVYYCQQYHSYPTFGGGTKVEIK
B12: SA302a HC-Y33aM (antibody, V domains shown)
VH: QVQLQESGPGLVKPSQTLSLTCTVSGYSITSDMNAHWIRQPPGKGLEWIGYIHYSGSTNYNPSLKSRVTISRDTSKNQFSLKLSSVTAADTAVYYCARNYGSIYVNYFDYWGQGTLVTVSS
VL: EIVLTQSPATLSLSPGERATLSCSASSSVSYMYWYQQKPGQAPRPLIYRTSNLASGIPARFSGSGSGTDFTLTISSLEPEDFAVYYCQQYHSYPTFGGGTKVEIK
B13: SA302a HC-S31P (antibody, V domains shown)
VH: QVQLQESGPGLVKPSQTLSLTCTVSGYSITPDYNAHWIRQPPGKGLEWIGYIHYSGSTNYNPSLKSRVTISRDTSKNQFSLKLSSVTAADTAVYYCARNYGSIYVNYFDYWGQGTLVTVSS
VL: EIVLTQSPATLSLSPGERATLSCSASSSVSYMYWYQQKPGQAPRPLIYRTSNLASGIPARFSGSGSGTDFTLTISSLEPEDFAVYYCQQYHSYPTFGGGTKVEIK
B14: SA302a HC-S31Q (antibody, V domains shown)
VH: QVQLQESGPGLVKPSQTLSLTCTVSGYSITQDYNAHWIRQPPGKGLEWIGYIHYSGSTNYNPSLKSRVTISRDTSKNQFSLKLSSVTAADTAVYYCARNYGSIYVNYFDYWGQGTLVTVSS
VL: EIVLTQSPATLSLSPGERATLSCSASSSVSYMYWYQQKPGQAPRPLIYRTSNLASGIPARFSGSGSGTDFTLTISSLEPEDFAVYYCQQYHSYPTFGGGTKVEIK
B15: SA302a HC-N33bF (antibody, V domains shown)
VH: QVQLQESGPGLVKPSQTLSLTCTVSGYSITSDYFAHWIRQPPGKGLEWIGYIHYSGSTNYNPSLKSRVTISRDTSKNQFSLKLSSVTAADTAVYYCARNYGSIYVNYFDYWGQGTLVTVSS
VL: EIVLTQSPATLSLSPGERATLSCSASSSVSYMYWYQQKPGQAPRPLIYRTSNLASGIPARFSGSGSGTDFTLTISSLEPEDFAVYYCQQYHSYPTFGGGTKVEIK
B16: SA302a HC-Y33aV (antibody, V domains shown)
VH: QVQLQESGPGLVKPSQTLSLTCTVSGYSITSDVNAHWIRQPPGKGLEWIGYIHYSGSTNYNPSLKSRVTISRDTSKNQFSLKLSSVTAADTAVYYCARNYGSIYVNYFDYWGQGTLVTVSS
VL: EIVLTQSPATLSLSPGERATLSCSASSSVSYMYWYQQKPGQAPRPLIYRTSNLASGIPARFSGSGSGTDFTLTISSLEPEDFAVYYCQQYHSYPTFGGGTKVEIK
B17: SA302a HC-Y33aN (antibody, V domains shown)
VH: QVQLQESGPGLVKPSQTLSLTCTVSGYSITSDNNAHWIRQPPGKGLEWIGYIHYSGSTNYNPSLKSRVTISRDTSKNQFSLKLSSVTAADTAVYYCARNYGSIYVNYFDYWGQGTLVTVSS
VL: EIVLTQSPATLSLSPGERATLSCSASSSVSYMYWYQQKPGQAPRPLIYRTSNLASGIPARFSGSGSGTDFTLTISSLEPEDFAVYYCQQYHSYPTFGGGTKVEIK
B18: SA302a HC-D33N (antibody, V domains shown)
VH: QVQLQESGPGLVKPSQTLSLTCTVSGYSITSNYNAHWIRQPPGKGLEWIGYIHYSGSTNYNPSLKSRVTISRDTSKNQFSLKLSSVTAADTAVYYCARNYGSIYVNYFDYWGQGTLVTVSS
VL: EIVLTQSPATLSLSPGERATLSCSASSSVSYMYWYQQKPGQAPRPLIYRTSNLASGIPARFSGSGSGTDFTLTISSLEPEDFAVYYCQQYHSYPTFGGGTKVEIK
B19: SA302a HC-N33bY (antibody, V domains shown)
VH: QVQLQESGPGLVKPSQTLSLTCTVSGYSITSDYYAHWIRQPPGKGLEWIGYIHYSGSTNYNPSLKSRVTISRDTSKNQFSLKLSSVTAADTAVYYCARNYGSIYVNYFDYWGQGTLVTVSS
VL: EIVLTQSPATLSLSPGERATLSCSASSSVSYMYWYQQKPGQAPRPLIYRTSNLASGIPARFSGSGSGTDFTLTISSLEPEDFAVYYCQQYHSYPTFGGGTKVEIK
B20: SA302a HC-Y33aH (antibody, V domains shown)
VH: QVQLQESGPGLVKPSQTLSLTCTVSGYSITSDHNAHWIRQPPGKGLEWIGYIHYSGSTNYNPSLKSRVTISRDTSKNQFSLKLSSVTAADTAVYYCARNYGSIYVNYFDYWGQGTLVTVSS
VL: EIVLTQSPATLSLSPGERATLSCSASSSVSYMYWYQQKPGQAPRPLIYRTSNLASGIPARFSGSGSGTDFTLTISSLEPEDFAVYYCQQYHSYPTFGGGTKVEIK
B21: SA302a HC-N33bG (antibody, V domains shown)
VH: QVQLQESGPGLVKPSQTLSLTCTVSGYSITSDYGAHWIRQPPGKGLEWIGYIHYSGSTNYNPSLKSRVTISRDTSKNQFSLKLSSVTAADTAVYYCARNYGSIYVNYFDYWGQGTLVTVSS
VL: EIVLTQSPATLSLSPGERATLSCSASSSVSYMYWYQQKPGQAPRPLIYRTSNLASGIPARFSGSGSGTDFTLTISSLEPEDFAVYYCQQYHSYPTFGGGTKVEIK

The target of the assay is T1, human IL-18BP. Briefly: BLI, apparent KD.
In the case of B1, the Kd was determined as 1.53 nM.

B2: the Kd came out at 2.99 nM.

On to B3, for which the Kd is 4.97 nM.

For the molecule B4, the Kd is 2.24 nM.

Consider B5, for which the Kd was found to be 8.65 nM.

As for B6, the Kd is 0.61 nM.

In the case of B7, the Kd came out at 8.72 nM.

Consider B8, for which the Kd was 10.5 nM.

As to B9, the Kd is 0.92 nM.

In the case of B10, the Kd was 4.38 nM.

On to B11, for which the Kd turned out to be 2.36 nM.

With B12, the Kd was 3.05 nM.

On to B13, for which the Kd amounted to 4.37 nM.

With B14, the Kd turned out to be 0.56 nM.

Regarding B15, the Kd is 5.24 nM.

For B16, the Kd amounted to 4.49 nM.

With B17, the Kd was determined as 5.92 nM.

B18: the Kd came to 1.66 nM.

For B19, the Kd amounted to 6.15 nM.

Turning to B20, the Kd came out at 4.11 nM.

With B21, the Kd stood at 2.21 nM.
